This note sets out measurements from patent US20260250418A1 (BIOCYTOGEN PHARMACEUTICALS BEIJING, published 2026).

The target of assay [1] is T1, His-tagged human HER3 protein (hHER3, ACRO Biosystems Inc., Cat #: ER3-H5223) (human, UniProt P21860 20-643).
T1 construct: Bought protein; also called hHER3-His; not shown: His tag
Description: SPR, Ab captured on Protein A. On the procedure: (§1) Purified anti-HER3 antibodies was captured on the Protein A chip (Series S Sensor Chip Protein A) for the detection. […] For ISO control, an antibody targeting an irrelevant target protein was used. The flow rate was 30 μL/min, the binding and dissociation time were set to 180 s and 400 s, respectively. The chip was regenerated after the last injection of each titration with a glycine solution (pH 2.0) at 30 μL/min for 30 seconds.
(§2) As a person of ordinary skill in the art would understand, the same method with appropriate adjustments for parameters (e.g., antibody concentration) was performed for each tested antibody.

Assay [2] concerns the target T2, His-tagged monkey HER3 protein (fasHER3, Sino Biological, Inc., Cat #: 90043-K08H) (monkey).
T2 construct: Bought protein
As to the kind of experiment: SPR, Ab captured on Protein A. On the procedure:
as §1, §2
For orientation: SPR reads the build-up and loss of mass on a sensor chip optically.

Assay [3] deals with T3, His-tagged dog HER3 protein (dHER3, SEQ ID NO: 45) (dog, UniProt P21860 20-642 (human entry)).
T3 construct: not shown: His tag
T3 chain: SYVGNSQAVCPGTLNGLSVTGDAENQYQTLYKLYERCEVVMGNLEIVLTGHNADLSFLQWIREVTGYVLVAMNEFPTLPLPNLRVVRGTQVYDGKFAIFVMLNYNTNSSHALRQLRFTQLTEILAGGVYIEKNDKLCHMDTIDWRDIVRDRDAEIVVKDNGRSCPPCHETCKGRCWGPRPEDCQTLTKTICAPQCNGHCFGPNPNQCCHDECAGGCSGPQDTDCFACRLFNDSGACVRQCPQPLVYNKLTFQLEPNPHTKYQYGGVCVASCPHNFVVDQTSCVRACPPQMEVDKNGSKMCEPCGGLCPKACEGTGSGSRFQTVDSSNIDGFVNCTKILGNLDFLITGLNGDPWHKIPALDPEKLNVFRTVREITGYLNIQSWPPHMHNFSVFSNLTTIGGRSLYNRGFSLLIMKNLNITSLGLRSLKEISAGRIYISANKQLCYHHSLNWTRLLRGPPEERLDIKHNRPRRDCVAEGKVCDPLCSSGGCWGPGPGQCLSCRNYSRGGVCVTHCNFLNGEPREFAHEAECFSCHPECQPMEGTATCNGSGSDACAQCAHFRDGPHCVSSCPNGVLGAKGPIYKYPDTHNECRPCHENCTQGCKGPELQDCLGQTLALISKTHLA
Description: SPR, Ab captured on Protein A. On the procedure:
as §1, §2

Assay [4] deals with T4, human HER3 on CHO-hHER3 cells (human, UniProt P21860 20-643).
T4 construct: CHO-S cells transfected with hHER3
Description: flow cytometry, transfected CHO cells. On the procedure: (§3) CHO-hHER3 cells, CHO-mHER3 cells, CHO-fasHER3 cells or CHO-dHER3 cells were transferred to a 96-well plate at a density of 5×10⁴ cells/well respectively. The anti-HER3 antibodies were added to the 96-well plate, and incubated at 4° C. for 30 min.
In general terms: Flow cytometry measures light scatter and fluorescence of single cells or particles in a stream.

The target of assay [5] is T5, mouse HER3 on CHO-mHER3 cells (mouse, UniProt Q61526 20-641).
T5 construct: CHO-S cells transfected with mHER3
T5 sequence (Q61526 20-641): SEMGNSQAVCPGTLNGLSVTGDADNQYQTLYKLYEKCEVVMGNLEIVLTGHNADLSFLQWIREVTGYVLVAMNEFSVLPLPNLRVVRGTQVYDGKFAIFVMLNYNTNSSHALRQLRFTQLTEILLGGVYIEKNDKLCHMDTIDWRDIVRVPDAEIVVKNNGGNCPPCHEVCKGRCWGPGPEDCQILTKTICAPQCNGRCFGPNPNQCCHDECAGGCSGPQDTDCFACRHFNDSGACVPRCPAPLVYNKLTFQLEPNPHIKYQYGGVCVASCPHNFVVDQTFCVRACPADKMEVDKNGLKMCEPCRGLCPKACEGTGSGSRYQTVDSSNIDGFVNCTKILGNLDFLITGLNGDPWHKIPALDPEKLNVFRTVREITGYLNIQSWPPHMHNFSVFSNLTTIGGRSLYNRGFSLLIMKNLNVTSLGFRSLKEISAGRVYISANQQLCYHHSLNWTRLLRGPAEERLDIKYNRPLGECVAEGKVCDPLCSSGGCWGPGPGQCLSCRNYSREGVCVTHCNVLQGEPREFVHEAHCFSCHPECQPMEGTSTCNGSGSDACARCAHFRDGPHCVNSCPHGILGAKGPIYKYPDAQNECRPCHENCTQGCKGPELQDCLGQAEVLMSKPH
As to the kind of experiment: flow cytometry, transfected CHO cells. On the procedure: as §3

Assay [6] concerns the target T6, monkey (Macaca fascicularis) HER3 on CHO-fasHER3 cells (monkey (Macaca fascicularis), UniProt P21860 20-643 (human entry)).
T6 construct: CHO-S cells transfected with fasHER3
T6 chain: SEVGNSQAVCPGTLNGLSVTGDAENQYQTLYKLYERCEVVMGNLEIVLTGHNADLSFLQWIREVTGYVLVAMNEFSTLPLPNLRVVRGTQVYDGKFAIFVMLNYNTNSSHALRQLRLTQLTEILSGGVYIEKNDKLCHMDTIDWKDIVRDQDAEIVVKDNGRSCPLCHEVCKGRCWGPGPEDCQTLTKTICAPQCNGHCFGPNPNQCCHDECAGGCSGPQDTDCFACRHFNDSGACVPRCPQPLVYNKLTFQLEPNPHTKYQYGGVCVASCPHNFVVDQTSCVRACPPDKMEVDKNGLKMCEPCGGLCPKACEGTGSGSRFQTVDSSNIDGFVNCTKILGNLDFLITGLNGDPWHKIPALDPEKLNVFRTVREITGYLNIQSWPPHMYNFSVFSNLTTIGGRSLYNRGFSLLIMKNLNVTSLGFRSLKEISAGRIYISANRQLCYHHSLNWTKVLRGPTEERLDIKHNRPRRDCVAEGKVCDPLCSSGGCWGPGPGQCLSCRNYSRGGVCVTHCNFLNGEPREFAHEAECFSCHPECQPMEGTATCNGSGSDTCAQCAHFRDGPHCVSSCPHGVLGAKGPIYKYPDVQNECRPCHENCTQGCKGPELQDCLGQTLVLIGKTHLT
Description: flow cytometry, transfected CHO cells. On the procedure:
as §3

Assay [7] addresses T7, dog HER3 on CHO-dHER3 cells (dog, UniProt P21860 20-1342 (human entry)).
T7 construct: CHO-S cells transfected with dHER3
T7 chain: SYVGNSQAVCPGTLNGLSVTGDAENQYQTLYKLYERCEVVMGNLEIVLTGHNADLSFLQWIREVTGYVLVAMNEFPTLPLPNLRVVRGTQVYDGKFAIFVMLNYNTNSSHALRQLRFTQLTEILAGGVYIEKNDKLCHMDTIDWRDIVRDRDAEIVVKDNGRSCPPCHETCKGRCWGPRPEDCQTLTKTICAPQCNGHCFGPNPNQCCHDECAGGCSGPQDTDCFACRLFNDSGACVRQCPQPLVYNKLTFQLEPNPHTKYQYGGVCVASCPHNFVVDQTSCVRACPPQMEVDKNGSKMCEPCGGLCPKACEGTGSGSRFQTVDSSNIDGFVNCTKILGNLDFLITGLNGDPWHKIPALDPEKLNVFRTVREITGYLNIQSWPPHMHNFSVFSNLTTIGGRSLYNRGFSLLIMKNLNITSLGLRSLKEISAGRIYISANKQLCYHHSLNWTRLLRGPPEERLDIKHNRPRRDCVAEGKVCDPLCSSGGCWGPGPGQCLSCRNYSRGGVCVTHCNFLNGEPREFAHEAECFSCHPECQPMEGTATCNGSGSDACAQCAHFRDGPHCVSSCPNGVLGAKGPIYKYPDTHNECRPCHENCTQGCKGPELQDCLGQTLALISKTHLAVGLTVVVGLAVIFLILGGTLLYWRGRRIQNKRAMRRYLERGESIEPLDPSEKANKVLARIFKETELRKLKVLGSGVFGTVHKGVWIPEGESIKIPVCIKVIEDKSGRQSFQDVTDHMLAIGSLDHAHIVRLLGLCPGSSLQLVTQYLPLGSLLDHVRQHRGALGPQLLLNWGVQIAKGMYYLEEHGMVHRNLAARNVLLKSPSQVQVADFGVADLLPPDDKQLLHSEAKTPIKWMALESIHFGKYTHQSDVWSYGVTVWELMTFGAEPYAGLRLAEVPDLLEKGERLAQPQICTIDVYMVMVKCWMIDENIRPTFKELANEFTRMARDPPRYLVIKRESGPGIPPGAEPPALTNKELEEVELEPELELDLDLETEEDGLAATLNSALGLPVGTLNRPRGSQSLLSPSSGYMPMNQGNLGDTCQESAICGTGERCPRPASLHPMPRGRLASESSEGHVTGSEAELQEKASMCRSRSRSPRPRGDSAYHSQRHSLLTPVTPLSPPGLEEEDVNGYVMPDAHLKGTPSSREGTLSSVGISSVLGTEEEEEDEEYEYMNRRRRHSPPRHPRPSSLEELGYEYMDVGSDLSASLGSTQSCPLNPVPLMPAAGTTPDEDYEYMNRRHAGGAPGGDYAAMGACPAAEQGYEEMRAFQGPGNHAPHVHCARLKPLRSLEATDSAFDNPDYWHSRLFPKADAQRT
Description: flow cytometry, transfected CHO cells. On the procedure: as §3

Assay [8] addresses T4, human HER3 on CHO-hHER3 cells. Description: flow cytometry, transfected CHO cells. On the procedure:
(§4) Specifically, CHO-hHER3 cells, CHO-fasHER3 cells, NIH3T3-hMET cells or NIH3T3-fasMET cells were transferred to a 96-well plate at a density of 5×10⁴ cells/well respectively. The antibodies were added to the 96-well plate, and incubated at 4° C. for 30 min.
This is another data set of the same source.

The target of assay [9] is T6, monkey (Macaca fascicularis) HER3 on …. Description: flow cytometry, transfected CHO cells. On the procedure: as §4
For assay [10], the target named is T8, human MET on NIH3T3-hMET cells (human, UniProt P08581 25-1390).
T8 construct: NIH3T3 cells transfected with a plasmid expressing hMET
T8 sequence (P08581 25-1390 limits assumed): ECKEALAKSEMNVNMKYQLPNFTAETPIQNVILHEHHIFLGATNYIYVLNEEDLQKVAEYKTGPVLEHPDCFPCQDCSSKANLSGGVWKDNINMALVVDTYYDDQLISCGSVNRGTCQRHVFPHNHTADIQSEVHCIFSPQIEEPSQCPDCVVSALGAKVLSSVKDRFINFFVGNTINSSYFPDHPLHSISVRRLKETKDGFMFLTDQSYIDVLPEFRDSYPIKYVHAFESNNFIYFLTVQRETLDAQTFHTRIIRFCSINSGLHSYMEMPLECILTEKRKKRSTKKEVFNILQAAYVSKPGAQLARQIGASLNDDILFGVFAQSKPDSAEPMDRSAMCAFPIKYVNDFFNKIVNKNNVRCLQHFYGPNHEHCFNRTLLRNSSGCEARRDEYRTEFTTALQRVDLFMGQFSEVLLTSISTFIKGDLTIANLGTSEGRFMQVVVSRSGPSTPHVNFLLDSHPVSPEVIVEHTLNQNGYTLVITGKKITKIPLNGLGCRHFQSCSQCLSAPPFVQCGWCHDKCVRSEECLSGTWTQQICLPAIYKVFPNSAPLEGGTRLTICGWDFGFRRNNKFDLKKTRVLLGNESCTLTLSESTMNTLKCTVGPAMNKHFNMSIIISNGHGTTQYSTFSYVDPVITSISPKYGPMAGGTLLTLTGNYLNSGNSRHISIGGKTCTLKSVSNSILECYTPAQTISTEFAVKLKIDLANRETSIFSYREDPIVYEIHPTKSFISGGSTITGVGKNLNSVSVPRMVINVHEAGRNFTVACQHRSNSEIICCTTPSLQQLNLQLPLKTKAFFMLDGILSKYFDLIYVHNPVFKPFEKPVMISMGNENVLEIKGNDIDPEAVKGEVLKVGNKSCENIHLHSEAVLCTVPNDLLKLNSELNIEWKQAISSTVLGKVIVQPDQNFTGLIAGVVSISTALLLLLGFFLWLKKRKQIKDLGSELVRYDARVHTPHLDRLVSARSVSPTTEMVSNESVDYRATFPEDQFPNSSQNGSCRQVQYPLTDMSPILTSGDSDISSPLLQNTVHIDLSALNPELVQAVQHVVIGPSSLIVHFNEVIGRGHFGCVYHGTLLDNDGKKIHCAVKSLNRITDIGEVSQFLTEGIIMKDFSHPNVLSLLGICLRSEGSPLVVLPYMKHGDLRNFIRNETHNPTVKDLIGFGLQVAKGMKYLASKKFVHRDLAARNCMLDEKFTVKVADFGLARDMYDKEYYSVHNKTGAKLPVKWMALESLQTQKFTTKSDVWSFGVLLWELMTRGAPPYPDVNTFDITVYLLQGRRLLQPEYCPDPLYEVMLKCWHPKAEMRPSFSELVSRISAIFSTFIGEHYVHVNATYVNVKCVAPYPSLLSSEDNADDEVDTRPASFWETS
As to the kind of experiment: flow cytometry, transfected NIH3T3 cells. On the procedure:
as §4

The target in assay [11] is T9, monkey MET on NIH3T3-fasMET cells (monkey, UniProt A0M8R7 25-1381).
T9 construct: NIH3T3 cells transfected with a plasmid expressing fasMET
T9 sequence (A0M8R7 25-1381 S170N/I621T limits assumed): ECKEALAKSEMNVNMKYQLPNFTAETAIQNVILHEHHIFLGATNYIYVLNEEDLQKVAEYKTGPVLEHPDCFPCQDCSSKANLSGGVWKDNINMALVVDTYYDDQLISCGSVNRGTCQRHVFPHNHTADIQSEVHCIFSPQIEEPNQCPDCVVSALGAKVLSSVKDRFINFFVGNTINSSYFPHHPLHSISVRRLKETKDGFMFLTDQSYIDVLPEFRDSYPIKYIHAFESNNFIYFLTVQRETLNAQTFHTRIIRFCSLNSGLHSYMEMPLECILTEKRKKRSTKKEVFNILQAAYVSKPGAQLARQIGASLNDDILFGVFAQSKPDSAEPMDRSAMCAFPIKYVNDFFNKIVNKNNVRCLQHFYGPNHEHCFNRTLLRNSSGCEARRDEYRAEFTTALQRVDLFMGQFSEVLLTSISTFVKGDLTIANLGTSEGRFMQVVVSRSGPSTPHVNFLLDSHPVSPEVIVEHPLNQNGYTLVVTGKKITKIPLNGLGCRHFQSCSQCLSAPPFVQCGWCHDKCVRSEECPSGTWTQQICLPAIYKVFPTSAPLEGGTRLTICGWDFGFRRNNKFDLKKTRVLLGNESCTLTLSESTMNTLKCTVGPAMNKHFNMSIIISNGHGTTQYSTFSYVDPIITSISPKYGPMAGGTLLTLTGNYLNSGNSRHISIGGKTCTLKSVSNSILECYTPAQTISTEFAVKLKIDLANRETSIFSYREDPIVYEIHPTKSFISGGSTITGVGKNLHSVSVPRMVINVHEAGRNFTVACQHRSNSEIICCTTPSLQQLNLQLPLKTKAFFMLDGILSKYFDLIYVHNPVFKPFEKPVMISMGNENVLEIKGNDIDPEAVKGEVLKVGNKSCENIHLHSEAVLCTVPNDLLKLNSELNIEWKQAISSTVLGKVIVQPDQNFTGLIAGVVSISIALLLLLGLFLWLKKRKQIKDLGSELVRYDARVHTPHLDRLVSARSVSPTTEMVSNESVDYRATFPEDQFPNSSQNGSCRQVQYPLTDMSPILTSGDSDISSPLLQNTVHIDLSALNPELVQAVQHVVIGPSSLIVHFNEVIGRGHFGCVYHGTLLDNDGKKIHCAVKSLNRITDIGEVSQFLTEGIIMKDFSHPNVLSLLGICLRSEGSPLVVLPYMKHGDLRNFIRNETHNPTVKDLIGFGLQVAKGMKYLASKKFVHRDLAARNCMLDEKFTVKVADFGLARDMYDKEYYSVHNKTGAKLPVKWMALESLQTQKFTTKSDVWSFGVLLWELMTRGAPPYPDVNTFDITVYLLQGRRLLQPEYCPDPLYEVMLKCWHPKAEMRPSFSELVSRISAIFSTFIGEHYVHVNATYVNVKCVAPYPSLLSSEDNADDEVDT
As to the kind of experiment: flow cytometry, transfected NIH3T3 cells. On the procedure:
as §4

Assay [12] has as its target T1, His-tagged human HER3 protein (hHER3, …). As to the kind of experiment: SPR, Ab captured on Protein A, antigen 400 nM. On the procedure:
(§5) Purified antibodies were captured on the Protein A chip (Series S Sensor Chip Protein A) for the detection. 2 μg/mL antibodies were loaded at 10 μL/min to bind to hHER3, fasHER3, hMET or fasMET (400 and 0 nM). The flow rate was 30 μL/min, the binding and dissociation time were set to 180 s and 400 s, respectively. The chip was regenerated after the last injection of each titration with a glycine solution ([…]) at 30 μL/min for 30 seconds.

For assay [13], the target named is T2, His-tagged monkey HER3 protein …. As to the kind of experiment: SPR, Ab captured on Protein A, antigen 400 nM. On the procedure:
as §5

Assay [14] deals with T10, His-tagged human MET (hMET, Sino Biological, Inc., Cat #: 10692-H08H) (human, UniProt P08581 25-932).
T10 construct: Bought protein; not shown: His tag
T10 sequence (P08581 25-932 limits assumed): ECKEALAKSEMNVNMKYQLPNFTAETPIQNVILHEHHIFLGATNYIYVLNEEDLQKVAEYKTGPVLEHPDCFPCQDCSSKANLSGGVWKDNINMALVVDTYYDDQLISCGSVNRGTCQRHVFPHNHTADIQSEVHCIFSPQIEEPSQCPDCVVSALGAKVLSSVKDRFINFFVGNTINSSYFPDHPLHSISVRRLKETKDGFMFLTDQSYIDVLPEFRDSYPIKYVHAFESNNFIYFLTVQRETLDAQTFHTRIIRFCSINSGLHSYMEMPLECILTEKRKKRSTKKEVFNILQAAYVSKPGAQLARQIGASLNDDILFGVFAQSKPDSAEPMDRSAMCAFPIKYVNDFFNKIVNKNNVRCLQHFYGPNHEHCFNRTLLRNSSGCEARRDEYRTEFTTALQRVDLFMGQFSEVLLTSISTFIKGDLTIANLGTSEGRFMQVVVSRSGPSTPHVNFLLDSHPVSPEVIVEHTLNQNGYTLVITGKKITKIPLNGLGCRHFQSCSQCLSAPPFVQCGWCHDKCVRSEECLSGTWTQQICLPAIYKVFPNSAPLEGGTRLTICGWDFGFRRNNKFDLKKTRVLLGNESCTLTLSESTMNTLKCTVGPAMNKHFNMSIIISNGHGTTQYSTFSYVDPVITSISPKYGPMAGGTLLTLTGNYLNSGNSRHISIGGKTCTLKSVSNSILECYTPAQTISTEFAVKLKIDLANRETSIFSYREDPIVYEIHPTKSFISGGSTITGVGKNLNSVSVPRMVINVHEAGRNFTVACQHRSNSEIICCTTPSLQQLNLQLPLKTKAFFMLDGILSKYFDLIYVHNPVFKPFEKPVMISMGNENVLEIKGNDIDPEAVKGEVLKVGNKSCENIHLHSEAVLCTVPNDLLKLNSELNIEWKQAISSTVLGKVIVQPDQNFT
Description: SPR, Ab captured on Protein A, antigen 400 nM. On the procedure:
as §5

B1: anti-HER3 antibody 1D6 (antibody, V domains shown)
VH: EVQLVQSGPGLVKPSETLSLTCTVSGGSISSNNYYWAWIRQPPGKGLEWIGSLYYTGRAYYKSSLKSRVTISVDTSNDQFSLRLTSVTAADTAIYYCARHDCGNTCLNWFDRWGQGTLVTVSS
VL: not shown
notes: common light chain
As usually defined, the Kd is the constant that tells how readily two partners part at equilibrium. The koff is the first-order rate constant of dissociation. The term kon denotes the rate constant with which the complex forms. As for B1, the figures for the Kd in [1], in [2] and in assay [3] were 81.4 nM, 14.4 nM and 77.4 nM, respectively. Besides, the values for the koff in assay [1], in [2] and in assay [3] were 0.00769 s⁻¹, 0.00098 s⁻¹ and 0.0045 s⁻¹, respectively. The kon in [1] turned out to be 94500 M⁻¹ s⁻¹; in [2], 68000 M⁻¹ s⁻¹; in assay [3] it was 58100 M⁻¹ s⁻¹. For the same molecule, the “Percentage of Positive Cells” value in assay [4] amounted to 68%; in assay [5], 58.9%; in assay [6] it was 62.9%; in assay [7], 38.1%.

B2: anti-HER3/MET bispecific antibody 1C5-2F11 (bispecific antibody, V domains shown)
VH 1: QVQLVESGGGVVQPGKSLRLSCAASGFTFSRSGMHWVRQAPGKGLEWVALISFDGSNKYYADSVKGRFTISRDNSKNTLNLQMNSLRAEDTAVYYCAKGGFGVVIYDAFDIWGHGTMVTVSS
VH 2: EVQLVESGPGLVKPSETLSLTCTVSGGSISSNYWSWIRQPPGKGLEWIGYIYHSGSTNYNPSLKSRVTISVDTSKNQFSLKLSSVTAADTAVYFCARGPVSIFGVVKYIDLWGRGTLVTVSS
VL: not shown
Turning to B2, the “Positive Cells” value in assay [8] is 56%; in [9], 54.9%; in assay [10] it was 99.7%; in assay [11], 68.4%. The Kd in [12] is 29.3 nM; in assay [13] it was 103 nM; in assay [14] it was 44.2 nM. Besides, the koff is 0.000548 s⁻¹ in assay [12], 0.000582 s⁻¹ in assay [13] and 0.00282 s⁻¹ in [14]. Moreover, the kon turned out to be 18700 M⁻¹ s⁻¹ in assay [12], 5630 M⁻¹ s⁻¹ in assay [13] and 63800 M⁻¹ s⁻¹ in assay [14].
